# Assay results published in paper PMC11761708.
# Biological target: protein G-Fc (Fc specific protein G variant)
# Experiment: SPR
substance,measurement,value
human Fc (Fc domain of IgG) (domain or fragment),Kd,3.8 nM
